From patent CN116836268A

target: Cov-S-His (SARS-CoV-2); experiment: SPR, Biacore T200, antibody captured by anti-mouse Fc, Cov-S-His as analyte

Binder	Kd [nM]
S4B3VH-h2+L1C9VK-mIgG2a (antibody, V domains shown) VH: QVQLVQSGAEVKKPGSSVKVSCKASGYIFNSYSIHWVRQAPGQGLEWIGAIYPGNGDTSNSQRFKGKATITADKSASTAYMELSSLRSEDTAVYYCARDGYDDSYGLDYWGQGTTVTVSS VL: DIQLTQSPSTLSASVGDRVTITCRASQNIGGWLAWYQQKPGKAPNLLIYQASTLESGVPSRFSGSGSGTEFTLTISSLQAEDFATYHCQQYSGFPWTFGQGTKVEIKR	5.76
S4B3VH-h2+L1B2VK-mIgG2a (antibody, V domains shown) VH: QVQLVQSGAEVKKPGSSVKVSCKASGYIFNSYSIHWVRQAPGQGLEWIGAIYPGNGDTSNSQRFKGKATITADKSASTAYMELSSLRSEDTAVYYCARDGYDDSYGLDYWGQGTTVTVSS VL: DIQMTQSPSSLSASVGDRVTITCRASQNIHNYLDWYQQKPGKAPKLLIYSASSRETGVPSSFSGSGSGTDFTLTISSLQPEDFATYYCQQFQQIPWTFGQGTKVEIKR	3.04
S4B3VH-h1+L1B2VK-mIgG2a (antibody, V domains shown) VH: QVQLVQSGAEVKKPGSSVKVSCKASGYIFNSYSIHWVRQAPGQGLEWIGAIYPGNGDTSNSQRFKGRVTITADKSTSTAYMELSSLRSEDTAVYYCARDGYDDSYGLDYWGQGTTVTVSS VL: DIQMTQSPSSLSASVGDRVTITCRASQNIHNYLDWYQQKPGKAPKLLIYSASSRETGVPSSFSGSGSGTDFTLTISSLQPEDFATYYCQQFQQIPWTFGQGTKVEIKR	2.86
S4B3VH-h2+S4B3VK-h1-mIgG2a (antibody, V domains shown) VH: QVQLVQSGAEVKKPGSSVKVSCKASGYIFNSYSIHWVRQAPGQGLEWIGAIYPGNGDTSNSQRFKGKATITADKSASTAYMELSSLRSEDTAVYYCARDGYDDSYGLDYWGQGTTVTVSS VL: DIVMTQSPDSLAVSLGERATINCKASQNVGTNVAWYQQKPGQPPKALIYSASYRYSGVPDRFSGSGSGTDFTLTISSLQAEDVAVYFCQQYNSYPLTFGQGTKLEIKR	23.9
S4B3VH-h1+S4B3VK-h1-mIgG2a (antibody, V domains shown) VH: QVQLVQSGAEVKKPGSSVKVSCKASGYIFNSYSIHWVRQAPGQGLEWIGAIYPGNGDTSNSQRFKGRVTITADKSTSTAYMELSSLRSEDTAVYYCARDGYDDSYGLDYWGQGTTVTVSS VL: DIVMTQSPDSLAVSLGERATINCKASQNVGTNVAWYQQKPGQPPKALIYSASYRYSGVPDRFSGSGSGTDFTLTISSLQAEDVAVYFCQQYNSYPLTFGQGTKLEIKR	14.5
S4B3VH-h1+L1C9VK-mIgG2a (antibody, V domains shown) VH: QVQLVQSGAEVKKPGSSVKVSCKASGYIFNSYSIHWVRQAPGQGLEWIGAIYPGNGDTSNSQRFKGRVTITADKSTSTAYMELSSLRSEDTAVYYCARDGYDDSYGLDYWGQGTTVTVSS VL: DIQLTQSPSTLSASVGDRVTITCRASQNIGGWLAWYQQKPGKAPNLLIYQASTLESGVPSRFSGSGSGTEFTLTISSLQAEDFATYHCQQYSGFPWTFGQGTKVEIKR	5
